Experimental data reported in patent US9284543B2, “Neutral active soluble truncated PH20 polypeptides and uses thereof” (Halozyme, Inc., priority 2008, dated 2016).

Tests used:
CHO-S cells = test: Western blot analysis of PH20 expression in media and cells after transient expression; assay type: cell-based, Chinese Hamster; settings: media versus cells
In short: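 CHO-S cells were transiently transfected with mutant PH20-HZ24 plasmids using GeneJuice and expressed for 48-72 h at 37 °C, 5% CO2. Media and cells were harvested separately, with PI-PLC treatment used to release GPI-anchored protein. Non-reduced samples were blotted with rabbit anti-PH20 (0.5 μg/mL), and a band near 66 kDa was scored as PH20.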

[1] = Microtiter hyaluronidase activity assay with biotinylated-hyaluronic acid; assay type: biochemical; settings: 72 hour post transfection supernatant

| Molecule | pH 5.5 Activity ([1]; Table 6) | pH 7.4 Activity ([1]; Table 6) | pH 5.5 Activity ([1]; Table 6A) | pH 7.4 Activity ([1]; Table 6A) | Expressed in Media (CHO-S cells) |
| --- | --- | --- | --- | --- | --- |
| SPAM1-ADVK: C-terminally truncated human PH20, precursor 450 aa (SEQ ID NO:43), mature 415 aa (SEQ ID NO:95) (protein, listed as Homo sapiens, HuPH20 precursor 1-450) MGVLKFKHIFFRSFVKSSGVSQIVFTFLLIPCCLTLNFRAPPVIPNVPFLWAWNAPSEFCLGKFDEPLDMSLFSFIGSPRINATGQGVTIFYVDRLGYYPYIDSITGVTVNGGIPQKISLQDHLDKAKKDITFYMPVDNLGMAVIDWEEWRPTWARNWKPKDVYKNRSIELVQQQNVQLSLTEATEKAKQEFEKAGKDFLVETIKLGKLLRPNHLWGYYLFPDCYNHHYKKPGYNGSCFNVEIKRNDDLSWLWNESTALYPSIYLNTQQSPVAATLYVRNRVREAIRVSKIPDAKSPLPVFAYTRIVFTDQVLKFLSQDELVYTFGETVALGASGIVIWGTLSIMRSMKSCLLLDNYMETILNPYIINVTLAAKMCSQVLCQEQGVCIRKNWNSSDYLHLNPDNFAIQLEKGGKFTVRGKPTLEDLEQFSEKFYCSCYSTLSCKEKADVK | 0.0405 Units/ml | 0.063 Units/ml | – | – | YES |
| SPAM1-DAVD: C-terminally truncated human PH20, precursor 456 aa (SEQ ID NO:40), mature 421 aa (SEQ ID NO:92) (protein, listed as Homo sapiens, HuPH20 precursor 1-456; Mature HuPH20 36-456) chain 1: MGVLKFKHIFFRSFVKSSGVSQIVFTFLLIPCCLTLNFRAPPVIPNVPFLWAWNAPSEFCLGKFDEPLDMSLFSFIGSPRINATGQGVTIFYVDRLGYYPYIDSITGVTVNGGIPQKISLQDHLDKAKKDITFYMPVDNLGMAVIDWEEWRPTWARNWKPKDVYKNRSIELVQQQNVQLSLTEATEKAKQEFEKAGKDFLVETIKLGKLLRPNHLWGYYLFPDCYNHHYKKPGYNGSCFNVEIKRNDDLSWLWNESTALYPSIYLNTQQSPVAATLYVRNRVREAIRVSKIPDAKSPLPVFAYTRIVFTDQVLKFLSQDELVYTFGETVALGASGIVIWGTLSIMRSMKSCLLLDNYMETILNPYIINVTLAAKMCSQVLCQEQGVCIRKNWNSSDYLHLNPDNFAIQLEKGGKFTVRGKPTLEDLEQFSEKFYCSCYSTLSCKEKADVKDTDAVD chain 2: LNFRAPPVIPNVPFLWAWNAPSEFCLGKFDEPLDMSLFSFIGSPRINATGQGVTIFYVDRLGYYPYIDSITGVTVNGGIPQKISLQDHLDKAKKDITFYMPVDNLGMAVIDWEEWRPTWARNWKPKDVYKNRSIELVQQQNVQLSLTEATEKAKQEFEKAGKDFLVETIKLGKLLRPNHLWGYYLFPDCYNHHYKKPGYNGSCFNVEIKRNDDLSWLWNESTALYPSIYLNTQQSPVAATLYVRNRVREAIRVSKIPDAKSPLPVFAYTRIVFTDQVLKFLSQDELVYTFGETVALGASGIVIWGTLSIMRSMKSCLLLDNYMETILNPYIINVTLAAKMCSQVLCQEQGVCIRKNWNSSDYLHLNPDNFAIQLEKGGKFTVRGKPTLEDLEQFSEKFYCSCYSTLSCKEKADVKDTDAVD | 0.0675 Units/ml | 0 Units/ml | – | – | YES |
| SPAM1-ASPS: C-terminally truncated human PH20, precursor 487 aa (SEQ ID NO:14), mature 452 aa (SEQ ID NO:66) (protein, listed as Homo sapiens, HuPH20 precursor 1-487) MGVLKFKHIFFRSFVKSSGVSQIVFTFLLIPCCLTLNFRAPPVIPNVPFLWAWNAPSEFCLGKFDEPLDMSLFSFIGSPRINATGQGVTIFYVDRLGYYPYIDSITGVTVNGGIPQKISLQDHLDKAKKDITFYMPVDNLGMAVIDWEEWRPTWARNWKPKDVYKNRSIELVQQQNVQLSLTEATEKAKQEFEKAGKDFLVETIKLGKLLRPNHLWGYYLFPDCYNHHYKKPGYNGSCFNVEIKRNDDLSWLWNESTALYPSIYLNTQQSPVAATLYVRNRVREAIRVSKIPDAKSPLPVFAYTRIVFTDQVLKFLSQDELVYTFGETVALGASGIVIWGTLSIMRSMKSCLLLDNYMETILNPYIINVTLAAKMCSQVLCQEQGVCIRKNWNSSDYLHLNPDNFAIQLEKGGKFTVRGKPTLEDLEQFSEKFYCSCYSTLSCKEKADVKDTDAVDVCIADGVCIDAFLKPPMETEEPQIFYNASPS | 0.9225 Units/ml | 1.017 Units/ml | 1.580 Units/ml | 1.134 Units/ml | YES |

Continued, in another order:

| pH 5.5 Activity ([1]; Table 6) | pH 7.4 Activity ([1]; Table 6) | pH 5.5 Activity ([1]; Table 6A) | pH 7.4 Activity ([1]; Table 6A) | Molecule | Expressed in Media (CHO-S cells) |
| --- | --- | --- | --- | --- | --- |
| 0.0225 Units/ml | 0.054 Units/ml | – | – | SPAM1-VKDT: C-terminally truncated human PH20, precursor 452 aa (SEQ ID NO:42), mature 417 aa (SEQ ID NO:94) (protein, listed as Homo sapiens, HuPH20 precursor 1-452; Mature HuPH20 36-452) chain 1: MGVLKFKHIFFRSFVKSSGVSQIVFTFLLIPCCLTLNFRAPPVIPNVPFLWAWNAPSEFCLGKFDEPLDMSLFSFIGSPRINATGQGVTIFYVDRLGYYPYIDSITGVTVNGGIPQKISLQDHLDKAKKDITFYMPVDNLGMAVIDWEEWRPTWARNWKPKDVYKNRSIELVQQQNVQLSLTEATEKAKQEFEKAGKDFLVETIKLGKLLRPNHLWGYYLFPDCYNHHYKKPGYNGSCFNVEIKRNDDLSWLWNESTALYPSIYLNTQQSPVAATLYVRNRVREAIRVSKIPDAKSPLPVFAYTRIVFTDQVLKFLSQDELVYTFGETVALGASGIVIWGTLSIMRSMKSCLLLDNYMETILNPYIINVTLAAKMCSQVLCQEQGVCIRKNWNSSDYLHLNPDNFAIQLEKGGKFTVRGKPTLEDLEQFSEKFYCSCYSTLSCKEKADVKDT chain 2: LNFRAPPVIPNVPFLWAWNAPSEFCLGKFDEPLDMSLFSFIGSPRINATGQGVTIFYVDRLGYYPYIDSITGVTVNGGIPQKISLQDHLDKAKKDITFYMPVDNLGMAVIDWEEWRPTWARNWKPKDVYKNRSIELVQQQNVQLSLTEATEKAKQEFEKAGKDFLVETIKLGKLLRPNHLWGYYLFPDCYNHHYKKPGYNGSCFNVEIKRNDDLSWLWNESTALYPSIYLNTQQSPVAATLYVRNRVREAIRVSKIPDAKSPLPVFAYTRIVFTDQVLKFLSQDELVYTFGETVALGASGIVIWGTLSIMRSMKSCLLLDNYMETILNPYIINVTLAAKMCSQVLCQEQGVCIRKNWNSSDYLHLNPDNFAIQLEKGGKFTVRGKPTLEDLEQFSEKFYCSCYSTLSCKEKADVKDT | YES |
| 0.0585 Units/ml | 0.0495 Units/ml | – | – | SPAM1-VDVC: C-terminally truncated human PH20, precursor 458 aa (SEQ ID NO:39), mature 423 aa (SEQ ID NO:91) (protein, listed as Homo sapiens, HuPH20 precursor 1-458; Mature HuPH20 36-458) chain 1: MGVLKFKHIFFRSFVKSSGVSQIVFTFLLIPCCLTLNFRAPPVIPNVPFLWAWNAPSEFCLGKFDEPLDMSLFSFIGSPRINATGQGVTIFYVDRLGYYPYIDSITGVTVNGGIPQKISLQDHLDKAKKDITFYMPVDNLGMAVIDWEEWRPTWARNWKPKDVYKNRSIELVQQQNVQLSLTEATEKAKQEFEKAGKDFLVETIKLGKLLRPNHLWGYYLFPDCYNHHYKKPGYNGSCFNVEIKRNDDLSWLWNESTALYPSIYLNTQQSPVAATLYVRNRVREAIRVSKIPDAKSPLPVFAYTRIVFTDQVLKFLSQDELVYTFGETVALGASGIVIWGTLSIMRSMKSCLLLDNYMETILNPYIINVTLAAKMCSQVLCQEQGVCIRKNWNSSDYLHLNPDNFAIQLEKGGKFTVRGKPTLEDLEQFSEKFYCSCYSTLSCKEKADVKDTDAVDVC chain 2: LNFRAPPVIPNVPFLWAWNAPSEFCLGKFDEPLDMSLFSFIGSPRINATGQGVTIFYVDRLGYYPYIDSITGVTVNGGIPQKISLQDHLDKAKKDITFYMPVDNLGMAVIDWEEWRPTWARNWKPKDVYKNRSIELVQQQNVQLSLTEATEKAKQEFEKAGKDFLVETIKLGKLLRPNHLWGYYLFPDCYNHHYKKPGYNGSCFNVEIKRNDDLSWLWNESTALYPSIYLNTQQSPVAATLYVRNRVREAIRVSKIPDAKSPLPVFAYTRIVFTDQVLKFLSQDELVYTFGETVALGASGIVIWGTLSIMRSMKSCLLLDNYMETILNPYIINVTLAAKMCSQVLCQEQGVCIRKNWNSSDYLHLNPDNFAIQLEKGGKFTVRGKPTLEDLEQFSEKFYCSCYSTLSCKEKADVKDTDAVDVC | YES |
| 0.054 Units/ml | 0 Units/ml | – | – | SPAM1-DTDA: C-terminally truncated human PH20, precursor 454 aa (SEQ ID NO:41), mature 419 aa (SEQ ID NO:93) (protein, listed as Homo sapiens, HuPH20 precursor 1-454; Mature HuPH20 36-454) chain 1: MGVLKFKHIFFRSFVKSSGVSQIVFTFLLIPCCLTLNFRAPPVIPNVPFLWAWNAPSEFCLGKFDEPLDMSLFSFIGSPRINATGQGVTIFYVDRLGYYPYIDSITGVTVNGGIPQKISLQDHLDKAKKDITFYMPVDNLGMAVIDWEEWRPTWARNWKPKDVYKNRSIELVQQQNVQLSLTEATEKAKQEFEKAGKDFLVETIKLGKLLRPNHLWGYYLFPDCYNHHYKKPGYNGSCFNVEIKRNDDLSWLWNESTALYPSIYLNTQQSPVAATLYVRNRVREAIRVSKIPDAKSPLPVFAYTRIVFTDQVLKFLSQDELVYTFGETVALGASGIVIWGTLSIMRSMKSCLLLDNYMETILNPYIINVTLAAKMCSQVLCQEQGVCIRKNWNSSDYLHLNPDNFAIQLEKGGKFTVRGKPTLEDLEQFSEKFYCSCYSTLSCKEKADVKDTDA chain 2: LNFRAPPVIPNVPFLWAWNAPSEFCLGKFDEPLDMSLFSFIGSPRINATGQGVTIFYVDRLGYYPYIDSITGVTVNGGIPQKISLQDHLDKAKKDITFYMPVDNLGMAVIDWEEWRPTWARNWKPKDVYKNRSIELVQQQNVQLSLTEATEKAKQEFEKAGKDFLVETIKLGKLLRPNHLWGYYLFPDCYNHHYKKPGYNGSCFNVEIKRNDDLSWLWNESTALYPSIYLNTQQSPVAATLYVRNRVREAIRVSKIPDAKSPLPVFAYTRIVFTDQVLKFLSQDELVYTFGETVALGASGIVIWGTLSIMRSMKSCLLLDNYMETILNPYIINVTLAAKMCSQVLCQEQGVCIRKNWNSSDYLHLNPDNFAIQLEKGGKFTVRGKPTLEDLEQFSEKFYCSCYSTLSCKEKADVKDTDA | YES |
